Experimental data taken from patent US20020173462A1.

Columns and labels:
human fibrinogen (human) = human fibrinogen (human) (UniProt P02671); test: affinity blot, dilution series of antigen and fibrinogen
[1] = biological target: human prothrombin (human) (UniProt P00734); test: affinity blot, dilution series of antigen and prothrombin

Substance | amount of protein detected with 10 ng/ml of fibrinogen (human fibrinogen (human)) | amount of protein detected with 10 ng/ml of prothrombin [1]
60 kDa fibrinogen-binding protein (Eap, extracellular adherence protein) | 0.1 ng | 0.1 ng
87 kDa fibrinogen-binding protein (coagulase) | 0.1 ng | 
